This test addresses Arp2/3 complex (Bos taurus, UniProt A7MB62, CK-666). Put plainly: fluorescence anisotropy. (In general: In fluorescence polarisation assays a small probe gives low polarisation when free and higher when bound to something large.)

Consider one molecule from PMC3684959 (2013).

B1: cortactin NTA N-terminal acidic region (protein)
chain: MWKASAGHAVSIAQDDAGADDWETDPDFVNDVSEKEQRWGAKTVQGSGHQEHINIHKLRENVFQEHQTLKEKELETGPKASHGY
What is called Kd is a measure of binding affinity in units of concentration. Lower therefore signals tighter binding. Take B1: the Kd came out at 1200 nM.
